In US20240052042A1 (Novartis, published 2024):
Values belong to the binder of their own block, whether it stands above or below them.

Experiments:
[1] = target: T1, human NPR3 (counter target) (human, UniProt P17342 27-481, limits assumed); test: ELISA, IgG titrated on coated antigen, fluorescence [Cont.]
T1 construct: Pannings used hNPR3-hFc; also called hNPR3; hNPR3-hFc
T1 sequence (looked up): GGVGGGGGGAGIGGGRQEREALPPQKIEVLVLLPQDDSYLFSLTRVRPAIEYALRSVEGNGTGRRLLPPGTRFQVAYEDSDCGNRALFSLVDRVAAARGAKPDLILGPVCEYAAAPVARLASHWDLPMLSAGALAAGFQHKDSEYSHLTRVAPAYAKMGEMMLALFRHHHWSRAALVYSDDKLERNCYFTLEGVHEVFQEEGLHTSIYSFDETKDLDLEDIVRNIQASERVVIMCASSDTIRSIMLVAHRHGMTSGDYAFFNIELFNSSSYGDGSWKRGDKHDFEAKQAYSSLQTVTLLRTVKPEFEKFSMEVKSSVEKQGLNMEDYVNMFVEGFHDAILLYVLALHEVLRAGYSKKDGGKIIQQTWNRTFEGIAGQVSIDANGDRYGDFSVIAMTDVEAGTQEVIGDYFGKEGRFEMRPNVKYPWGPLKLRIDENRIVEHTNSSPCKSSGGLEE

rat NPR1 (rNPR1) = target: T2, rat NPR1 (rNPR1) (rat, UniProt P18910 29-469, limits assumed); test: as above
T2 construct: Soluble antigen
T2 sequence: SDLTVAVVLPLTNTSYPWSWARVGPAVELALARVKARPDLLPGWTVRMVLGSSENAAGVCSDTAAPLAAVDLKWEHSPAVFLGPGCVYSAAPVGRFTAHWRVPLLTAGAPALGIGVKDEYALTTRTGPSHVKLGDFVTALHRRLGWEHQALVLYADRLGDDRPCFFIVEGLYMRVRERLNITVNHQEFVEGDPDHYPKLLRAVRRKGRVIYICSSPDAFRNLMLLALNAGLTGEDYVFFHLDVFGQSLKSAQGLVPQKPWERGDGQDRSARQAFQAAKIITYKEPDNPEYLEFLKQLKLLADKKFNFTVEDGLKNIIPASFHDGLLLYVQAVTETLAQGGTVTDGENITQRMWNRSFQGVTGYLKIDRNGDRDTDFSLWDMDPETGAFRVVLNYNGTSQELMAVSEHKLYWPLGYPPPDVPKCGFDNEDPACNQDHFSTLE

[2] = target: T3, human NPR3 in the presence of ANP (human, UniProt P17342 27-481; P01160 124-151, limits assumed); test: ELISA, 1 µM IgG; design: unit not given here
T3 construct: also called hNPR3 + 100 nM ANP
T3 sequence (looked up): T1 sequence (looked up)
T3 sequence (peptide, looked up): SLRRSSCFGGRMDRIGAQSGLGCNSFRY

[3] = target: T1, human NPR3 (counter target); test: ELISA, 1 µM IgG; design: unit not given here
[4] = target: T4, human Natriuretic Peptide Receptor 1 (hNPR1) (human, UniProt P16066 33-473, limits assumed); test: ELISA, 1 µM IgG; design: unit not given here
T4 construct: pannings used NPR1-hFc; also called NPR1-hFc
T4 sequence: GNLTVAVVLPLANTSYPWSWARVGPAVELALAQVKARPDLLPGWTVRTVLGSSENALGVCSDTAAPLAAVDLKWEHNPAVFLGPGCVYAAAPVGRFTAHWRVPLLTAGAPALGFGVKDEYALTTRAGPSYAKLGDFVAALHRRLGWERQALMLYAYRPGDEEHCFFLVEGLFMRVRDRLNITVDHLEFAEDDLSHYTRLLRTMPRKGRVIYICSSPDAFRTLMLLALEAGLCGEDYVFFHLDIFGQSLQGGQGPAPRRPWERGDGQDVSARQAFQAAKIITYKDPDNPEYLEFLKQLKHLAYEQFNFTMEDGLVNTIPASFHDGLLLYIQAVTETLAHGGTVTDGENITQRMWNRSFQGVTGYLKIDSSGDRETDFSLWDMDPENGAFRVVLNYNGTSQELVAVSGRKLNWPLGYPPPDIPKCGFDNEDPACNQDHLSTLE

[5] = target: T4, human Natriuretic Peptide Receptor 1 …; test: ELISA, IgG titrated on coated antigen, fluorescence [Cont.]
rNPR1-ANP complex (rat) = target: T5, rNPR1-ANP complex (rat); test: ELISA, 1 µM IgG
T5 sequence: T2 sequence
T5 sequence (peptide): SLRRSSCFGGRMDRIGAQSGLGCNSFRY

[6] = target: W74R hNPR1 mutant in the presence of ANP (human) (UniProt P01160); test: ELISA, IgG titrated on coated antigen with ANP (250 fold molar excess), fluorescence [Cont.]
[7] = target: T4, human Natriuretic Peptide Receptor 1 …; test: FRET ANP competition assay: IgG titrated on NPR1, Eu-labeled donor, Cy5-labeled ANP as the competed ligand [Cont.]
Procedure: The same 31 IgGs were tested for ANP competition using a Fluorescence Resonance Energy Transfer (FRET)-based assay in which the NPR1-specific antibodies competed with ANP for binding to NPR1. In this FRET based assay (see FIG. 3), Eu-labeled Streptavidin (for measurement of IgGs) or Eu-labeled anti-hFc antibody (for measurement of FabCys) was used as an energy donor, while Cy5-labeled ANP was used as an acceptor (for all measurements). The resulting fluorescent signal was decreased by ANP-competitive antibodies. The assay was performed as follows: antibodies were mixed with NPR1 and incubated for 5 minutes at room temperature. After addition of the Eu-labeled donor and incubation for 30 minutes at room temperature, the Cy5-ANP solution was added. After a further 60-minute incubation, readout was performed using a TECAN Infinite M1000 Pro using an excitation wavelength of 317 nm and an emission wavelength of 665 nm. Percentage of ANP competition was calculated according to the following formulae: […]
All 92 FabCys and 24 IgGs were tested for binding to relevant antigens via ELISA and relevant cell lines by flow cytometry. […] Eight functional candidates were identified and analyzed for specificity in the Protein Panel Profiling assay (3P assay) in IgG format. For comparison, one of the functional candidates from the initial campaign (WW03) was analyzed. […]

- binding result [1]: no binding (tested: 1000 nM)
- binding result (rat NPR1 (rNPR1)): no binding (tested: 1000 nM)
- ELISA binding at 1 µM IgG [2]: 5
- ELISA binding at 1 µM IgG [3]: 6
- ELISA binding at 1 µM IgG [4]: 68
B1: YY07 (IgG format) (antibody, V domains shown)
VH: EVQLVQSGAEVKKPGESLKISCKGSGYSFTSYWISWVRQMPGKGLEWMGIIYPGTSYTRYSPSFQGQVTISADKSISTAYLQWSSLKASDTAMYYCARGSLPGLLGFDHWGQGTLVTVSS
VL: QSVLTQPPSVSGAPGQRVTISCTGSSSNIGAGYDVHWYQQLPGTAPKLLIYGNSNRPNGVPDRFSGSKSGTSASLAITGLQAEDEADYYCQSYDSPTSSSVFGGGTKLTVLG
notes: also called YY07_LALA

- ELISA binding at 1 µM IgG [2]: 6
- ELISA binding at 1 µM IgG [3]: 6
- ELISA binding at 1 µM IgG [4]: 91
- EC50 (read off the curve) [5]: ~7 nM
- ELISA binding at 1 µM IgG (rNPR1-ANP complex (rat)): 4
- EC50 (read off the curve) [6]: 20 nM
- IC50 (read off the curve) [7]: ~4 nM
B2: YY06 (IgG format) (antibody, V domains shown)
VH: EVQLLESGGGLVQPGGSLRLSCAASGFTFSSYAISWVRQAPGKGLEWVSAISGSGGSTYYAESVKGRFTISRDNSKNTLYLQMNSLRAEDTAVYYCARPYLGDRRSYGFDHWGQGTLVTVSS
VL: QSALTQPASVSGSPGQSITISCTGTSSDVGSYNLVSWYQQHPGKAPKLMIYEGSKRPSGVSNRFSGSKSGNTASLTISGLQAEDEADYYCSSYGFHIVVVVFGGGTKLTVLG
notes: also called YY06_LALA
